Reference: patent publication US20050142561A1 (published 2005)

Target: T1, Saccharomyces cerevisiae Fab1p (Saccharomyces cerevisiae, UniProt P34756 1-2278)
T1 construct: Constructs used in the two-hybrid, coimmunoprecipitation and cross-linking experiments are not described; also called PI3P 5-kinase
Assay: yeast two-hybrid; coimmunoprecipitation; cross-linking

T1 sequence (P34756 whole entry): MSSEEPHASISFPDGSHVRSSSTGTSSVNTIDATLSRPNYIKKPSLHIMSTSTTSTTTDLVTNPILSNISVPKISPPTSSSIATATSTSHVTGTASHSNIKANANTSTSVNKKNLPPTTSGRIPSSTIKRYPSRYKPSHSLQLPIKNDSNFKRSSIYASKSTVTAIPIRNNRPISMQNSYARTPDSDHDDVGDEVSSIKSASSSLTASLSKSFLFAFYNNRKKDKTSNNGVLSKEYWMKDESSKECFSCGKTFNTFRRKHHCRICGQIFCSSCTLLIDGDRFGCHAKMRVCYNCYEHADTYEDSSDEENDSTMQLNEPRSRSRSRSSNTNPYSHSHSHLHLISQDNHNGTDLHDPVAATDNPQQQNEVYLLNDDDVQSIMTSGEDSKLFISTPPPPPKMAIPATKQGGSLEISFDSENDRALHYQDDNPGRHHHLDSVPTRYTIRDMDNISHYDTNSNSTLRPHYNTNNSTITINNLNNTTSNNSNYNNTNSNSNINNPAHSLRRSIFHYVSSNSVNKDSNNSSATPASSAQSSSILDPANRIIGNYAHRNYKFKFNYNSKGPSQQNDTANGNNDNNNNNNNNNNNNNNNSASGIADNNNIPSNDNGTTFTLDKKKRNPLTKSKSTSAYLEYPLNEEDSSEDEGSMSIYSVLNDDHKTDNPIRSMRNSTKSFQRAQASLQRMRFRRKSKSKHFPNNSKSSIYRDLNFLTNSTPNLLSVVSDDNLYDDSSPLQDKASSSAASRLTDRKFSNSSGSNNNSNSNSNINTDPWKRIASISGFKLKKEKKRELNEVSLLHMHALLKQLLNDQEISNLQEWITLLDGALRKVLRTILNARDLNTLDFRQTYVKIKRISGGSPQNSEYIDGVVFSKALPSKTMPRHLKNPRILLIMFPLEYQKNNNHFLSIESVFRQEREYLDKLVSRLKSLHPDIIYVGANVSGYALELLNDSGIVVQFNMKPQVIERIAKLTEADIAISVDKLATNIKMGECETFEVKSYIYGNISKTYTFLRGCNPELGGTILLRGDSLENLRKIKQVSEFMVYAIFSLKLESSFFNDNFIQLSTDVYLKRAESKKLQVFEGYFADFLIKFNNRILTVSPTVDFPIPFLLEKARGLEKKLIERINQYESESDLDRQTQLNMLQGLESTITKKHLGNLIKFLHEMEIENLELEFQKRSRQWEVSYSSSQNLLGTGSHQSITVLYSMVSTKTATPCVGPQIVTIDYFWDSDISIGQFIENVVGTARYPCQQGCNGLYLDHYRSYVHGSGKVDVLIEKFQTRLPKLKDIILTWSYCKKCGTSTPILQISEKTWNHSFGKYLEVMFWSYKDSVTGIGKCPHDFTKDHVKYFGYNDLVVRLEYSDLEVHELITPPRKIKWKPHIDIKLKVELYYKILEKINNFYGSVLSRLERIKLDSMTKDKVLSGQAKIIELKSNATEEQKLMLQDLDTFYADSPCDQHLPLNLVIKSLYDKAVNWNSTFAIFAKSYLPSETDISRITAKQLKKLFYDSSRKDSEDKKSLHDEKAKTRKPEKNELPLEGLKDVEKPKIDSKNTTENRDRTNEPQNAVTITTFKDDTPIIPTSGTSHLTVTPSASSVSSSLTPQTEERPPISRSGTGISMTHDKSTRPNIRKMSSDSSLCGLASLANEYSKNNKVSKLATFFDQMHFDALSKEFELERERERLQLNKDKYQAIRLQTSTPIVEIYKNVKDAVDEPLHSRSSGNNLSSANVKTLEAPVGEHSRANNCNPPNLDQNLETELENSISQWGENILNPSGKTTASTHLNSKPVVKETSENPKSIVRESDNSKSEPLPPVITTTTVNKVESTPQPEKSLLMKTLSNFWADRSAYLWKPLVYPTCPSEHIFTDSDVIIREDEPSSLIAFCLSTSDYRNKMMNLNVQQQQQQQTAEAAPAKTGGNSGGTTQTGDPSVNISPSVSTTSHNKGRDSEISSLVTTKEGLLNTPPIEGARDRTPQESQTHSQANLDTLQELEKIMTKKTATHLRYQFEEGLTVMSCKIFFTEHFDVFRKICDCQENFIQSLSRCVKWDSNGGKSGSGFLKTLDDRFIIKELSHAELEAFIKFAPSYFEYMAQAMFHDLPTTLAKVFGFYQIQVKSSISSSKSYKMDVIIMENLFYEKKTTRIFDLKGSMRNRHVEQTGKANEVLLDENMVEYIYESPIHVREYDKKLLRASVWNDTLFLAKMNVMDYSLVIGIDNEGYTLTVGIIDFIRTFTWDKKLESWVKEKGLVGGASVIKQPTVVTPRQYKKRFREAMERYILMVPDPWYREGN

binding result: no binding
B1: Saccharomyces cerevisiae Vac14p (other)
chain: MEKSIAKGLSDKLYEKRKAAALELEKLVKQCVLEGDYDRIDKIIDELCRDYAYALHQPMARNAGLMGLAATAIALGINDVGRYLRNILPPVLACFGDQNDQVRFYACESLYNIAKIAKGEILVYFNEIFDVLCKISADTENSVRGAAELLDRLIKDIVAERASNYISIVNNGSHGLLPAIKTDPISGDVYQEEYEQDNQLAFSLPKFIPLLTERIYAINPDTRVFLVDWLKVLLNTPGLELISYLPSFLGGLFTFLGDSHKDVRTVTHTLMDSLLHEVDRISKLQTEIKMKRLERLKMLEDKYNNSSTPTKKADGALIAEKKKTLMTALGGLSKPLSMETDDTKLSNTNETDDERHLTSQEQLLDSEATSQEPLRDGEEYIPGQDINLNFPEVITVLVNNLASSEAEIQLIALHWIQVILSISPNVFIPFLSKILSVLLKLLSDSDPHITEIAQLVNGQLLSLCSSYVGKETDGKIAYGPIVNSLTLQFFDSRIDAKIACLDWLILIYHKAPNQILKHNDSMFLTLLKSLSNRDSVLIEKALSLLQSLCSDSNDNYLRQFLQDLLTLFKRDTKLVKTRANFIMRQISSRLSPERVYKVISSILDNYNDTTFVKMMIQILSTNLITSPEMSSLRNKLRTCEDGMFFNSLFKSWCPNPVSVISLCFVAENYELAYTVLQTYANYELKLNDLVQLDILIQLFESPVFTRMRLQLLEQQKHPFLHKCLFGILMIIPQSKAFETLNRRLNSLNIWTSQSYVMNNYIRQRENSNFCDSNSDISQRSVSQSKLHFQELINHFKAVSEEDEYSSDMIRLDHGANNKSLLLGSFLDGIDEDKQEIVTPISPMNEAINEEMESPNDNSSVILKDSGSLPFNRNVSDKLKK
notes: 880 amino acid polypeptide; In the Western blot it is the endogenous protein of yeast cell extracts; also called Vac14 yeast; YLR386W product
